This passage reports amyloid nucleation score results from the supplement of paper PMC12042874.

± gives the uncertainty stated by the source.

This data set can be described thus: amyloid nucleation score (Sup35N fusion, yeast selection) (log enrichment); library NNK2; higher = more nucleation; inactive = no reads after selection. The procedure, abridged: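 Growth for 7 days at 30°C on medium lacking adenine and uracil followed a 24-hour induction with 100 μM copper sulfate of psi-negative yeast expressing peptides of 20 random codons fused to Sup35N. Input and output plasmid inserts were sequenced with Illumina, and sequences with under 100 input reads were excluded. Nucleation score is the DiMSum log enrichment of output over input reads, centred on the mode score of non-aggregating sequences.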
As for LLTNAVRGLG, the amyloid nucleation score is 0.302 ± 0.56. ECCQILCGSYWYIKYLSYDC returned an amyloid nucleation score of 1.8 ± 0.13.

Consider TGCLLWCLLSMEGRESFQDD, for which the amyloid nucleation score is -0.504 ± 0.78. TGDCRT: the amyloid nucleation score was determined as 0.233 ± 0.2. As for FLVMGLRYS, the figure is 5.407 ± 0.052; as for LSDGN, -1.04 ± 0.76; as for VLECFFVA, 0.183 ± 0.5.

In turn, RLRVY returned an amyloid nucleation score of -0.781 ± 0.35. In turn, VSQARVLCFMNFGRFLTLNE gave an amyloid nucleation score of 5.51 ± 0.09. On to LTDNS, for which the amyloid nucleation score was determined as 0.147 ± 0.61. In turn, NCECMRWDDF had an amyloid nucleation score of -0.561 ± 0.38. As for CIGLHC, the figure is -0.196 ± 1.

With MDSIHFV, the amyloid nucleation score is -0.029 ± 0.41. FDKASLKFCVMLVVRSV: the amyloid nucleation score stood at 0.236 ± 1.1. LRVMSVRYSICVKYNVEFRL: the amyloid nucleation score is 1.18 ± 0.21. On to YGQKVMPESMKQSFNFMTEI, for which the amyloid nucleation score is -0.573 ± 0.63. In the case of SRNNIAQFCSLHAN it was “inactive”. In the case of AKLPKPSRLHQRLTKQTV it was 1.19 ± 0.38; in that of TVRMIMLANLIQSYWHTIVS, -0.153 ± 0.65. In the case of ITRSGWDFYLS it was 0.687 ± 0.49; in that of GPVLGEFVEGSGNANGDEQV, -0.107 ± 1.

Regarding SRPDLHHAKALYFNDLRRE, the amyloid nucleation score was 0.232 ± 0.27. As to SYGLLKYGI, the amyloid nucleation score was -0.891 ± 0.35. As for LHGVSAIMLGTIGARVN, the figure is -0.125 ± 0.49.

As to GGRRCGFITIRETNRTLLAL, the amyloid nucleation score is -0.28 ± 0.55. Substance LIFGAKLESGYASVEFSDSD had an amyloid nucleation score of -0.347 ± 1. Substance RHFMLSSTCPEGMNENGTFS displayed an amyloid nucleation score of 0.811 ± 0.51. On to YMNQERVQTVFDSRICFRLH, for which the amyloid nucleation score was -0.246 ± 0.35.

As to VYNSFSAFFYG, the amyloid nucleation score came out at 7.051 ± 0.036. TGKLCSSIKWWGT: the amyloid nucleation score worked out at 1.06 ± 0.39. In the case of GLDITIGEA, the amyloid nucleation score is -0.522 ± 0.63.

Turning to WSVCKRLCNVEMLAENLAID, the amyloid nucleation score is -0.67 ± 0.79. SKGSTGLRIVLFHFTCVVID returned an amyloid nucleation score of 1.99 ± 0.17. Consider CRLPQQKPHEMPTLDDFARS, for which the amyloid nucleation score amounted to 0.553 ± 0.44. In turn, LFYAAEYKLCMEV showed an amyloid nucleation score of -0.857 ± 0.41. In the case of RFFGTTFYTAMMTRGFETVT, the amyloid nucleation score is -0.139 ± 0.28.

NAIYLVRMDYS yielded an amyloid nucleation score of 0.138 ± 0.23. In the case of MHEEP it was 1.29 ± 0.23; in that of IVHLSHQG, -1.25 ± 0.62. On to TMRHQNASWLGVYINSSRKY, for which the amyloid nucleation score is 3.72 ± 0.078. LCYGFEYHVDGLYNVSYESS came in with an amyloid nucleation score of 0.298 ± 0.37. For the substance RNLDNHRTFFSFRIGLFMWS, the amyloid nucleation score amounted to 6.13 ± 0.077. As to RSSLEKIMIGNFNYVRVKLH, the amyloid nucleation score turned out to be 2.28 ± 0.18. In the case of VDVFGVCRRSVYVA it was 0.988 ± 0.4. Substance IAGLTISSAISGSWDVVKPS came in with an amyloid nucleation score of 4.38 ± 0.052. The substance NGADWATRRIWVSVRAVMGR showed an amyloid nucleation score of 0.513 ± 0.32. As for SLSTSFLYDFWVLNSADPRY, the figure is -0.258 ± 0.76; as for PSDMHSNNLA, -0.774 ± 0.76; as for YWPLVIFLAWPMKYFVLEVM, -0.417 ± 0.43.

For IHDELSRCRC, the amyloid nucleation score was -0.611 ± 0.63. Take YWFFCGRWK: the amyloid nucleation score was 4.7 ± 0.11. LVCYV registered an amyloid nucleation score of 0.611 ± 0.46. Consider IACYMMGLRLL, for which the amyloid nucleation score was -0.414 ± 0.41. For GKGNLQSCYEWKYKKLYVHT, the amyloid nucleation score is -0.248 ± 0.38. As for YLYLRKASEFLKGRWWVKYK, the amyloid nucleation score result is “inactive”. Regarding TMDNISSNSFDACSICSYWY, the amyloid nucleation score is 9.385 ± 0.081.

As to NTQDFGLCYIFFLQDRCN, the amyloid nucleation score is -0.117 ± 0.49. In the case of WNCLICRYVNVCKLLCFYY it was 6.505 ± 0.031. For LVHYPIYFLDNGFRHGDWEG, the amyloid nucleation score was -0.187 ± 0.55.

Regarding GHSSFDQTAFSDSAGSLRML, the amyloid nucleation score entry was “inactive”. PWHVYFDRNGWPYGSQRVQG registered an amyloid nucleation score of 0.718 ± 0.57. As for YLLYSNRQISYTFYCDDTVC, the entry is “inactive”; as for LIWVRGNEGRFGGRLVLVVE, “inactive”.

Substance HDIVRIALHYQQRVVCAWSC displayed an amyloid nucleation score of 0.713 ± 0.24. In the case of IFNWECMDAFFSLK, the amyloid nucleation score result is “inactive”. Consider FYQVNLPSCLNSDDNRCS, for which the amyloid nucleation score entry was “inactive”. CNEDFLSQLVVLHFKEYGDN: the amyloid nucleation score result was “inactive”.

WVLVYIICFTQDDS displayed an amyloid nucleation score of -1.4 ± 1.1.

In the case of KHLRFASEVNFSARVPPPWL, the amyloid nucleation score was -0.229 ± 0.33. Turning to FLVYTWSFRNSCRPDLKVVE, the amyloid nucleation score stood at 0.126 ± 0.8. For the substance DYMFIDLASSNTNLRSWSHS, the amyloid nucleation score was -0.408 ± 0.37.

As for LGYGRWCKVARPEYESGLTM, the amyloid nucleation score came out at 0.042 ± 1.1. As to RLTRALLCFTNKALDQCCST, the amyloid nucleation score entry was “inactive”. SGDGVLVSFSKDSGFQSFGS: the amyloid nucleation score was 0.673 ± 0.2. In the case of HVAESHMS it was 1.16 ± 0.43. The substance ACQHSG displayed an amyloid nucleation score of 4.36 ± 0.048. Turning to VSACSDLNGW, the amyloid nucleation score was -0.233 ± 0.47. Substance YLLGRMKWLNTVRWERRDEF came in with an amyloid nucleation score of 3.51 ± 0.083.

As to VPPPVGVIYGIQ, the amyloid nucleation score worked out at 0.637 ± 0.32. The substance ELGFGMMIAPSKGEKGDGML had an amyloid nucleation score of 3.37 ± 0.12.

As to SILFNVARGCAGVPNLKSYS, the amyloid nucleation score is -0.43 ± 0.56.

CASEVDNNSPPRWVRRTAGV gave an amyloid nucleation score of 0.777 ± 0.45. The substance IRLVHSNVEIWGSDLVFHRG returned an amyloid nucleation score of 6.196 ± 0.04. Substance HSTIAVSCY registered an amyloid nucleation score of 0.219 ± 1.

Substance VWQFRCGERMTKCLLWGDYG returned an amyloid nucleation score of 0.072 ± 0.31. In the case of FKNLAFTFNLQCL it was 6.472 ± 0.051. For FQSDIKVIIMSTCTISGGRY, the amyloid nucleation score came to 1.33 ± 0.25. In turn, YVSWRTNGLMSTCDFLTRQT showed an amyloid nucleation score of 0.719 ± 0.23. As for VFMGNSLHFRRSTVAHWRSN, the figure is 1.39 ± 0.41; as for AWLYFVLFNRVTCCMTNVEE, 9.571 ± 0.037. For the substance WNGYNGRDMCGKLCGVCTLG, the amyloid nucleation score was found to be 0.219 ± 0.43. KVFLFIFGLLTESPGCDQSP had an amyloid nucleation score of -0.536 ± 0.4. Take FKNTIV: the amyloid nucleation score is -0.343 ± 0.56. With LGIYVFAFKRMVNMEDLYTR, the amyloid nucleation score is -1.05 ± 0.41. As for RGGTKRGELCDALNHQFSVL, the figure is 0.413 ± 0.22.

YHFYMASYKAFKSGGVGTGG displayed an amyloid nucleation score of -1.56 ± 1.1. On to QVVFQGLFFYVGCSGHICRY, for which the amyloid nucleation score was determined as 7.67 ± 0.062. As to LYVTQTS, the amyloid nucleation score was -0.053 ± 0.35. For the substance AVVIWAKML, the amyloid nucleation score worked out at 0.372 ± 0.27. In the case of PSVACGERCKPMCKVTLSPC, the amyloid nucleation score was 1.42 ± 0.33. Substance MWISFFCRRYSNIWTGFGYM came in with an amyloid nucleation score of -1.09 ± 1.

With KVQHLQR, the amyloid nucleation score worked out at 0.403 ± 0.26. In the case of RLKCSYTGSALLGRSLGNPE, the amyloid nucleation score worked out at 0.29 ± 0.54. Turning to TYPNKADPLFRS, the amyloid nucleation score is 0.008 ± 0.46. Substance WHDNSSNGTGEGNFVRPVPV had an amyloid nucleation score of 1.13 ± 0.11. YIFSILRDKSVPFDSQVSKN: the amyloid nucleation score is -0.797 ± 1.1. With VKLVCSDFKMACTSSSMSVD, the amyloid nucleation score was determined as 0.861 ± 0.24. In the case of DVYTQASLGMS it was “inactive”. With VLFDF, the amyloid nucleation score was 0.652 ± 0.56.

For the substance RYLNWRVCSNRLPGSEGLWA, the amyloid nucleation score worked out at 0.323 ± 0.32. SLGTFVRHTEWSSKNEAFPV: the amyloid nucleation score result was “inactive”.

The substance MFCKLRFSVFLAWVDVK gave an amyloid nucleation score of 0.356 ± 0.6. In the case of CCQFLVTWDVAYTSMFGSTL it was 3.56 ± 0.056; in that of NSLVLPDLAYLGCKMNLNFS, 3.94 ± 0.074. As to TYVVKLLIGWDLDAIFTVLS, the amyloid nucleation score amounted to 0.499 ± 0.37. In turn, RVMRVISRPEELAWVA showed an amyloid nucleation score of 0.602 ± 0.29. Turning to SVNNHGRLYVWLERLSYTTF, the amyloid nucleation score was found to be 2.24 ± 0.14. In the case of GWFFDFFITCPVSHSTFSKL, the amyloid nucleation score amounted to 2.19 ± 0.14.

Turning to SLGPRRSCCTIWKVWAYAGS, the amyloid nucleation score worked out at 0.241 ± 0.42.

With LPEIHLVTLC, the amyloid nucleation score was -0.802 ± 0.49. In the case of SCCMGICGKDLCDGIELKFP it was -0.936 ± 1. As for NGGSGNQVMLEVTNLVFK, the figure is 5.295 ± 0.044. Regarding CCFVLTVR, the amyloid nucleation score stood at 5.174 ± 0.035.

For RNSIYMVTYIMVLDRIA, the amyloid nucleation score is 6.127 ± 0.046.

Regarding EFYFG, the amyloid nucleation score was 0.599 ± 0.8. The substance RFHELCV came in with an amyloid nucleation score of 0.998 ± 0.74. Consider FWCYELDNPDGYLIFLHQPV, for which the amyloid nucleation score result was “inactive”. In turn, LLSKGLA came in with an amyloid nucleation score of -0.682 ± 0.32. As for PDRSTFRVYSLHWTFCEHRC, the amyloid nucleation score was 3.74 ± 0.1. In the case of STQLDSKILINLRFFRMSIV it was -0.081 ± 1.1; in that of LNSANSFWCVRRYCGTAQMQ, -1.29 ± 1.1.

In turn, NNFWFKLQIM returned an amyloid nucleation score of 6.18 ± 0.064. The substance FQDTLDLRRLRYWCYPKLGL registered an amyloid nucleation score of -0.69 ± 0.55.

Substance LLPWGVTMVERLFIPIRCSD came in with an amyloid nucleation score of 0.308 ± 0.35. The substance LNGCSRILAFYMGCSCGGLM registered an amyloid nucleation score of -1.02 ± 0.76. In the case of IPCTTSCVVQFCVTYWLDN it was 6.419 ± 0.029; in that of CLINMTIYGERWRCVNDVPN, 3.54 ± 0.052. For FLVFYLVCGSGLYMNNGQFF, the amyloid nucleation score was -0.908 ± 0.41. On to RELLSLSYSLVMCVVLRV, for which the amyloid nucleation score was 0.734 ± 0.18. On to GLTGRPQRLIVWAYDLERLW, for which the amyloid nucleation score was -0.09 ± 0.63. In turn, VNWGNGVFAGFLWYYVRPCH showed an amyloid nucleation score of -1.03 ± 1.1.
